Molecular target: spike glycoprotein of live SARS-CoV-2 (isolate USA-WA1/2020) (SARS-CoV-2, UniProt P0DTC2 14-1273)
Test: cell-based or functional assay

B1: S2E12 (antibody, V domains shown)
VH: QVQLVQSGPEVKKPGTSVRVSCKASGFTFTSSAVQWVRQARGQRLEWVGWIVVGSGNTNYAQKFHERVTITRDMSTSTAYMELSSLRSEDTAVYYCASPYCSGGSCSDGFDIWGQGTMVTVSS
VL: DIVLTQTPGTLSLSPGERATLSCRASQSVSSSYLAWYQQKPGQAPRLLIYGASSRATGIPDRFSGSGSGTDFTLTISRLEPEDFAVYYCQQYVGLTGWTFGQGTKVEIK
B1 was tested, and the “EC50 (live SARS-CoV-2 neutralisation)” value was 5 ng/mL and the “IC50 (live SARS-CoV-2 neutralisation)” value was 5.41 ng/mL.

Source: CN116745314A (VIR BIOTECHNOLOGY CO LTD, dated 2023)
